From patent US20230069055A1 (BOLT BIOTHERAPEUTICS, published 2023)

biological target: PD-L1 on CHO-K1/PD-L1/alphaAPC stimulator cells (UniProt Q9NZQ7 19-290, limits assumed); assay: cell-based or functional assay
Sequence (Q9NZQ7 19-290 limits assumed): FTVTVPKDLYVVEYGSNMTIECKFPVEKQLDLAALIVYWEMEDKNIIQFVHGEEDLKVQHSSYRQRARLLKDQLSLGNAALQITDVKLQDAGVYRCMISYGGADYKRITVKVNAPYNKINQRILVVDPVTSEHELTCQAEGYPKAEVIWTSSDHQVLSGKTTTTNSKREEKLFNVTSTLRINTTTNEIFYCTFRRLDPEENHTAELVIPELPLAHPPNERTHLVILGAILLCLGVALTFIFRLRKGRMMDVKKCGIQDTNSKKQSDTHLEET

Binder	PD-L1/PD-1 blockade EC50 (nM)	PD-L1/PD-1 blockade EC50 (ng/ml)
PD-L1 binding agent 7 (antibody, V domains shown) VH: QVQLVQSGAEVKKPGASVKVSCKASGYTFTSYYMHWVRQAPGQGLEWMGWMNPNSGNTGYAQKFQGRVTMTRDTSTSTVYMELSSLRSEDTAVYYCARDDWGGDWFDPWGQGTLVTVSS VL: DIQMTQSPSSLSASVGDRVTITCQASQDISNHLNWYQQKPGKAPKLLIYGASNLQRGVPSRFSGSGSGTDFTLTISSLQPEDFATYYCQQSYSTPITFGQGTRLEIK	0.73 nM	106 ng/mL
PD-L1 binding agent 16 (antibody, V domains shown) VH: QVQLVQSGAEVKKPGASVKVSCKASGYTLPNYIHWVRQAPGQGLEWMGWIHPRSGATGYAPKFQGRVTMTRDTSTSTVYMELSSLRSEDTAVYYCARDSVFGLDYWGQGTLVTVSS VL: not shown	1.25 nM	181 ng/mL
PD-L1 binding agent 15 (antibody, V domains shown) VH: QVQLVQSGAEVKKPGASVKVSCKASGYTFTRHYVHWVRQAPGQGLEWMGWMNPNSGSAGYAQKFQGRVTMTRDTSTSTVYMELSSLRSEDTAVYYCARERGYNAFDYWGQGTLVTVSS VL: EIVMTQSPATLSVSPGERATLSCRASQSLSSSYLAWYQQKPGQAPRLLIYGASTRATGIPARFSGSGSGTEFTLTISSLQSEDFAVYYCHQYFTTPLTFGQGTRLEIK	1.13 nM	164 ng/mL
PD-L1 binding agent 4 (antibody, V domains shown) VH: QVQLVQSGAEVKKPGSSVKVSCKASGYTFTGYYIHWVRQAPGQGLEWMGGIIPIFGTASYAQKFQGRVTITADESTSTAYMELSSLRSEDTAVYYCARDGRFWSGYPDYWGQGTLVTVSS VL: DIQMTQSPSSLSASVGDRVTITCRASQGISNYLAWYQQKPGKAPKLLIYRASNLESGVPSRFSGSGSGTDFTLTISSLQPEDFATYYCQQSYSTPLTFGGGTKVEIK	0.85 nM	124 ng/mL
PD-L1 binding agent 9 (antibody, V domains shown) VH: QVQLVQSGAEVKEPGASVKVSCKASGYTFTDHYLHWVRQAPGQGLEWMGWMNPNIGNTGYAQKFQGRVTMTRDTSTSTVYMELSSLRSEDTAVYYCAREPLQLGGFDYWGQGTLVTVSS VL: DIQMTQSPSSLSASVGDRVTITCRASESISSWLAWYQQKPGKAPKLLIYAASSLQSGVPSRFSGSGSGTDFTLTISSLQPEDFATYYCQQSYSTPLTFGQGTKLEIK	0.67 nM	97.3 ng/mL
PD-L1 binding agent 10 (antibody, V domains shown) VH: QVQLVQSGAEVKKPGASVKVSCKASGYTFTGYYMHWVRQAPGQGLEWMGWMNPNGGTTGYAQNFQGRVTMTRDTSTSTVYMELSSLRSEDTAVYYCAREGFGPNAFDIWGQGTTVTVSS VL: DIQMTQSPSSLSASVGDRVTITCRASQSISSWLAWYQQKPGKAPKLLIYAASNLQSGVPSRFSGSGSGTDFTLTISSLQPEDFATYYCQQYYSTPYTFGQGTKVEIK	0.47 nM	67.4 ng/mL
PD-L1 binding agent 6 (antibody, V domains shown) VH: QVQLVQSGAEVKKPGASVKVSCKASGYTFTSHDINWVRQAPGQGLEWMGWMNPNSGNTGYAQKFQGRVTMTRDTSTSTVYMELSSLRSEDTAVYYCARDRWYMGSADYWGQGTLVTVSS VL: DIQMTQSPSSLSASVGDRVTITCRASQSISTWLAWYQQKPGKAPKLLIYAASTLQSGVPSRFSGSGSGTDFTLTISSLQPEDFATYYCQQSYSTPFTFGQGTKVEIK	0.73 nM	106 ng/mL
PD-L1 binding agent 14 (antibody, V domains shown) VH: QVQLVQSGAEVKKPGASVKVSCKASGYNFSAYYVHWVRQAPGQGLEWMGWMNPNRGITDSAQKFQGRVTMTRDTSTSTVYMELSSLRSEDTAVYYCAREAYVAAFDIWGQGTTVTVSS VL: DIQMTQSPSSLSASVGDRVTITCRASQGISSWLAWYQQKPGKAPKLLIYAASSLQSGVPSRFSGSGSGTDFTLTISSLQPEDFATYYCQQSYSTPLTFGGGTKVEIK	1.15 nM	166 ng/mL
PD-L1 binding agent 11 (antibody, V domains shown) VH: QVQLVQSGAEVKKPGASVKVSCKASGYTFTGYYMHWVRQAPGQGLEWMGWMNPNSGNTGYAQKFQGRVTMTRDTSTSTVYMELSSLRSEDTAVYYCARDSWYGDWFDPWGQGTLVTVSS VL: DIQMTQSPSSLSASVGDRVTITCRASQSVGSWLAWYQQKPGKAPKLLIYGASSLQSGVPSRFSGSGSGTDFTLTISSLQPEDFATYYCQQSYSTPLTFGGGTKVEIK	0.37 nM	53.6 ng/mL
PD-L1 binding agent 5 (antibody, V domains shown) VH: QVQLVQSGAEVKKPGASVKVSCKASGYTFSTHYMHWVRQAPGQGLEWMGWMNPNSGHAGSAQKFQGRVTMTRDTSTSTVYMELSSLRSEDTAVYYCARESIAVAGYDYWGQGTLVTVSS VL: DIQMTQSPSSLSASVGDRVTITCRASQSISSWLAWYQQKPGKAPKLLIYAASTLQRGVPSRFSGSGSGTDFTLTISSLQPEDFATYYCQQSYSTPYTFGQGTKLEIK	0.37 nM	54.3 ng/mL
PD-L1 binding agent 3 (antibody, V domains shown) VH: QVQLVQSGAEVKKPGASVKVSCKASGYTFSSYYMHWVRQAPGQGLEWMGWMTTNSGITGYAQKFQGRVTMTRDTSTSTVYMELSSLRSEDTAVYYCAREGYSSGLDYWGQGTLVTVSS VL: not shown	0.33 nM	47.3 ng/mL
PD-L1 binding agent 1 (antibody, V domains shown) VH: QVQLVQSGAEVKKPGASVKVSCKASGYTFSSDYMHWVRQAPGQGLEWMGWMSPYNGITGYAQKFQGRVTMTRDTSTSTVYMELSSLRSEDTAVYYCARDRFSGSYDYWGQGTLVTVSS VL: not shown	0.74 nM	106 ng/mL

biological target: T1, human PD-L1 (hPD-L1), endogenous on JIMT-1 cells (human, UniProt Q9NZQ7 19-290); assay: flow cytometry, JIMT-1 cells with endogenous hPD-L1, fluorescent anti-human IgG Fc secondary, geometric MFI
T1 construct: The assay used endogenous hPD-L1 on JIMT-1 cells; also called programmed death-ligand 1; CD274
Description: Diluted binding agents were applied to JIMT-1 cells (˜1×10⁵-2×10⁵ per well) and incubated at 4° C. […] After unbound secondary antibody was washed out, cells were resuspended in FACS buffer plus 2% formaldehyde and analyzed by flow cytometry.

T1 sequence (Q9NZQ7 19-290 limits assumed): as the sequence (Q9NZQ7 19-290 limits assumed) above

Binder	binding result
48 (antibody, V domains shown) VH: QVQLVQSGAEVKKPGASVKVSCKASGYTFTSYYMHWVRQAPGQGLEWMGWINPNSGNTGYAQKFQGRVTMTRDTSTSTVYMELSSLRSEDTAVYYCARDDWGGDWFDYWGQGTLVTVSS VL: DIQMTQSPSSLSASVGDRVTITCQASQDISNHLNWYQQKPGKAPKLLIYGASNLQRGVPSRFSGSGSGTDFTLTISSLQPEDFATYYCQQSYSTPITFGQGTRLEIK	binds
13 (antibody, V domains shown) VH: QVQLVQSGAEVKKPGASVKVSCKASGYTFTNYYMHWVRQAPGQGLEWMGWMSPSSGITGYAQKFQGRVTMTRDTSTSTVYMELSSLRSEDTAVYYCAREAWFGELSTWGQGTLVTVSS VL: DIQMTQSPSSLSASVGDRVTITCRASQNISNFLNWYQQKPGKAPKLLIYAASSLQSGVPSRFSGSGSGTDFTLTISSLQPEDFATYYCQQSYSLPYTFGQGTKVEIK	binds
12 (antibody, V domains shown) VH: QVQLVQSGAEVKKPGASVKVSCKASGYTFTGYYMHWMRQAPGQGLEWIGWMSPYNGITGYAQKFQGRVTMTRDTSTSTVYMELSSLRSEDTAVYYCAREVIEVGMDVWGQGTTVTVSS VL: DIQMTQSPSSLSASVGDRVTITCRASQSISSWLAWYQQKPGKAPKLLIYAASHLQSGVPSRFSGSGSGTDFTLTISSLQPEDFATYYCQQSYSTPYTFGQGTRLEIK	binds
46 (antibody, V domains shown) VH: QVQLVQSGAEVKKPGASVKVSCKASGYTFSTHYMHWVRQAPGQGLEWMGWINPNSGHAGSAQKFQGRVTMTRDTSTSTVYMELSSLRSEDTAVYYCARESIAVAGYDYWGQGTLVTVSS VL: DIQMTQSPSSLSASVGDRVTITCRASQSISSWLAWYQQKPGKAPKLLIYAASTLQRGVPSRFSGSGSGTDFTLTISSLQPEDFATYYCQQSYSTPYTFGQGTKLEIK	binds
47 (antibody, V domains shown) VH: QVQLVQSGAEVKKPGASVKVSCKASGYTFTGYYMHWVRQAPGQGLEWMGWINPNSGTTGYAQNFQGRVTMTRDTSTSTVYMELSSLRSEDTAVYYCAREGFGPNAFDIWGQGTTVTVSS VL: DIQMTQSPSSLSASVGDRVTITCRASQSISSWLAWYQQKPGKAPKLLIYAASNLQSGVPSRFSGSGSGTDFTLTISSLQPEDFATYYCQQYYSTPYTFGQGTKVEIK	binds
49 (antibody, V domains shown) VH: QVQLVQSGAEVKKPGASVKVSCKASGYTFTDHYLHWVRQAPGQGLEWMGWINPNIGNTGYAQKFQGRVTMTRDTSTSTVYMELSSLRSEDTAVYYCAREPLQLGGFDYWGQGTLVTVSS VL: DIQMTQSPSSLSASVGDRVTITCRASESISSWLAWYQQKPGKAPKLLIYAASSLQSGVPSRFSGSGSGTDFTLTISSLQPEDFATYYCQQSYSTPLTFGQGTKLEIK	binds
45 (antibody, V domains shown) VH: QVQLVQSGAEVKKPGASVKVSCKASGYTFSSYYMHWVRQAPGQGLEWMGWITTNSGITGYAQKFQGRVTMTRDTSTSTVYMELSSLRSEDTAVYYCAREGYSSGLDYWGQGTLVTVSS VL: not shown	binds
